The source of these data is PMC3902922 (Nucleic Acids Research, 2013).

The target in the assay is T1, Hop2-R176A–Mnd1 mutant complex (mouse, UniProt O35047 1-217; Q8K396 1-205, R176A).
T1 sequence 1: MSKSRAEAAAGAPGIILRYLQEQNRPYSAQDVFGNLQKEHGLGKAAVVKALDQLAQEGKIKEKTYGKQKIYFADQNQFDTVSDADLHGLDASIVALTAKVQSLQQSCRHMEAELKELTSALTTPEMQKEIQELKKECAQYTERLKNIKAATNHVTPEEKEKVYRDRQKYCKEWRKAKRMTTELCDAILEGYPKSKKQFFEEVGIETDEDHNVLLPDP
T1 sequence 2: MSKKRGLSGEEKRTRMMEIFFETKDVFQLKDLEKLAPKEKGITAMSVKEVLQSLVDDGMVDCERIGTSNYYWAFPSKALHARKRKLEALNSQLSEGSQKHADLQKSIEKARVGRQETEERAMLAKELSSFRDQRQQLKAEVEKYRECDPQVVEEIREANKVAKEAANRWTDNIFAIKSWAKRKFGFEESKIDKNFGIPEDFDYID
The assay can be described thus: pull-down.

B1: Human DMC1 (natural protein)
chain: MKEDQVVAEEPGFQDEEESLFQDIDLLQKHGINVADIKKLKSVGICTIKGIQMTTRRALCNVKGLSEAKVDKIKEAANKLIEPGFLTAFEYSEKRKMVFHITTGSQEFDKLLGGGIESMAITEAFGEFRTGKTQLSHTLCVTAQLPGAGGYPGGKIIFIDTENTFRPDRLRDIADRFNVDHDAVLDNVLYARAYTSEHQMELLDYVAAKFHEEAGIFKLLIIDSIMALFRVDFSGRGELAERQQKLAQMLSRLQKISEEYNVAVFVTNQMTADPGATMTFQADPKKPIGGHILAHASTTRISLRKGRGELRIAKIYDSPEMPENEATFAITAGGIGDAKE
With B1, the binding result is on record as “binds”.
